{"source": "paper PMC12219266", "about": "“The molecular basis for acetylhistidine synthesis by HisAT/NAT16” (Nature Communications, 2025)", "molecules": {"B1": {"name": "NAT16 (HisAT) (Homo sapiens) (protein)", "chain": "MKLEASCGTATSEVPKPEKKTARDAEPSSETRPQEVEAEPRSGSGPEAEAEPLDFVVATEREFEEVLAISGGIYGGLDYLPSRYHSWLRDPDRTVVLAKRNGGVIALESVNVIDAGETVLVEGLRVAPWERGKGVAGLLQRFCSQLVKRQHPGVKVARLTRDDQLGPRELKKYRLITKQGILLVRFNASALLAGLGARLAALRTSGTFSPLPTEAVSEAGGDVARLLLSPSVQRDVLPGGTIIQDWQPYRPSESNLRLLAAKGLEWRVDSRARPRVLTLCTRPFPIPHGGDGTWRYLNIDAFGSDGAQVQSQLLWHLQRQAPRLVGLNVMCQLFLEPQLWSQLADFCQVGLGLELVKGYTEQYLLEADI", "notes": "full length (369 aa), C-terminal 6xHis tag kept, codon-optimised, pFastBac1, Sf9 insect cells"}}, "key": {"NAT16 (HisAT)": {"target": "T1, NAT16 (HisAT) (Homo sapiens, UniProt Q8N8M0)", "T1 construct": "full length (369 aa), C-terminal 6xHis tag kept, codon-optimised, pFastBac1, Sf9 insect cells", "T1 sequence (Q8N8M0 1-369)": "B1 chain", "test": "DTNB real-time assay, Michaelis-Menten fit", "assay_type": "biochemical", "conditions": "50 µM Ac-CoA; 50 mM Na-phosphate pH 7.5, 37 °C"}, "[1]": {"substrate": "N[C@@H](Cc1c[nH]cn1)C(=O)O", "test": "DTNB real-time assay, initial rates, ternary complex model, secondary plots", "assay_type": "biochemical, Homo sapiens", "conditions": "varied with Ac-CoA, 50 mM Na-phosphate pH 7.5, 100 mM NaCl, 1 mM EDTA, 37 °C", "source_text": "(§1) DTNB real-time assay, initial rates, ternary complex model, secondary plots on NAT16 (HisAT)"}, "[2]": {"substrate": "CC(=O)SCCNC(=O)CCNC(=O)[C@H](O)C(C)(C)COP(=O)(O)OP(=O)(O)OC[C@H]1O[C@@H](n2cnc3c(N)ncnc32)[C@H](O)[C@@H]1OP(=O)(O)O", "test": "DTNB real-time assay, initial rates, ternary complex model, secondary plots", "assay_type": "biochemical, Homo sapiens", "conditions": "varied with L-histidine, 50 mM Na-phosphate pH 7.5, 100 mM NaCl, 1 mM EDTA, 37 °C", "source_text": "as §1"}}, "data": [{"molecule": "N=C(N)NCCC[C@H](N)C(=O)O", "note": "[arginine]", "values": [{"measurement": "apparent KM", "setting": "NAT16 (HisAT)", "result": "determined the apparent kcat and KM with arginine and lysine"}]}, {"molecule": "NCCCC[C@H](N)C(=O)O", "note": "[lysine]", "values": [{"measurement": "apparent KM", "setting": "NAT16 (HisAT)", "result": "determined the apparent kcat and KM with arginine and lysine"}]}, {"molecule": "B1", "values": [{"measurement": "Km", "setting": "[1]", "result": "215 ± 53", "unit": "µM"}, {"measurement": "kcat", "setting": "[1]", "result": "36.5 ± 4.6", "unit": "s⁻¹"}, {"measurement": "kcat/Km", "setting": "[1]", "result": 177000, "unit": "M⁻¹ s⁻¹"}, {"measurement": "Km", "setting": "[2]", "result": "19.8 ± 4.5", "unit": "µM"}, {"measurement": "kcat", "setting": "[2]", "result": "36.5 ± 4.6", "unit": "s⁻¹"}, {"measurement": "kcat/Km", "setting": "[2]", "result": "1.9e+06", "unit": "M⁻¹ s⁻¹"}]}]}
